Reference: article PMC8311663 (Molecular cell, 2021)

T1: Mycobacterium tuberculosis RNA polymerase β subunit (M. tuberculosis, UniProt P9WGY9 1-1178)
T1 sequence: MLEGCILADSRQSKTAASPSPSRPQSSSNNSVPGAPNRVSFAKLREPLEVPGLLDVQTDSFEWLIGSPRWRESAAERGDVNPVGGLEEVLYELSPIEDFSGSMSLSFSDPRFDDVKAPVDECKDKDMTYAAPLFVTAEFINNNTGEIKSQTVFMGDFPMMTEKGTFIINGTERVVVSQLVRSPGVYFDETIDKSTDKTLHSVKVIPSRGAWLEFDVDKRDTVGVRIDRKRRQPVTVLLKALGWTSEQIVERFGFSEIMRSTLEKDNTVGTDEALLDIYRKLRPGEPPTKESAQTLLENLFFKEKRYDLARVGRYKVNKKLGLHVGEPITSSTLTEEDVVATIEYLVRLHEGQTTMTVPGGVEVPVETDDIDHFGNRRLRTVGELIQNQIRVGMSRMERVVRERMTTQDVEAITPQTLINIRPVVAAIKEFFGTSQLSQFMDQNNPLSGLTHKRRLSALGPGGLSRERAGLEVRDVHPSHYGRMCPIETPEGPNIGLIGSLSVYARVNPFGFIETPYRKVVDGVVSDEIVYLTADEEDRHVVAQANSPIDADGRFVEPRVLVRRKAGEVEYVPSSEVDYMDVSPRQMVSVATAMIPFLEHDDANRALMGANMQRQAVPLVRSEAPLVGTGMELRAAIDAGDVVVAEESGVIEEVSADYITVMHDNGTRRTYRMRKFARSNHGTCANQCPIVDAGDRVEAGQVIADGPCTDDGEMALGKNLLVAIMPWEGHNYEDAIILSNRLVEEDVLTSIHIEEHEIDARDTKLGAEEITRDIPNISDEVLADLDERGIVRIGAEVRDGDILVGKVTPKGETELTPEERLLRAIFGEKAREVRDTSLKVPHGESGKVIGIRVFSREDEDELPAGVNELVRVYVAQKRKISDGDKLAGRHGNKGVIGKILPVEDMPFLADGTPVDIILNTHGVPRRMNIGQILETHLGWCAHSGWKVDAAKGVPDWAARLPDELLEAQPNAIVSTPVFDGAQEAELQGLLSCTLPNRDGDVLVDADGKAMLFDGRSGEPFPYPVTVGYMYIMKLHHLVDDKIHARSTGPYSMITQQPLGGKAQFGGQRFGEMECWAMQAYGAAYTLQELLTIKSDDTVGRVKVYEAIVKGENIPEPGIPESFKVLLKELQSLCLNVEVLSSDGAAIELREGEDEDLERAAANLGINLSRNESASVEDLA

T2: Mycobacterium tuberculosis σ^A (co-expressed with RbpA) (M. tuberculosis, UniProt P9WGI1)
T2 sequence: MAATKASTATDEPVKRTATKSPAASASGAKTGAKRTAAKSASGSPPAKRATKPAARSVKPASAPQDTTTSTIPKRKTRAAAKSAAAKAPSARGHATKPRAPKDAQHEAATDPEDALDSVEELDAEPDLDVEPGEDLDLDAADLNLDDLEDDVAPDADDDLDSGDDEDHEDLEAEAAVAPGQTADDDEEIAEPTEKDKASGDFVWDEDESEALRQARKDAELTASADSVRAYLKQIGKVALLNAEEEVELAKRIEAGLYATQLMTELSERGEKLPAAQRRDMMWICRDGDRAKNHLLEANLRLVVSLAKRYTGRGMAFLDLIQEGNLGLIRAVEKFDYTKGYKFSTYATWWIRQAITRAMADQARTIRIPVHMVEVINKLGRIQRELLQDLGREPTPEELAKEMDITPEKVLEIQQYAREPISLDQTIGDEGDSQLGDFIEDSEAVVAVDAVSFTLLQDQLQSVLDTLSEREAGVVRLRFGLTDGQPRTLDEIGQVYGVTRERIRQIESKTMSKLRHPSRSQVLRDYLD

B1: Mycobacterium tuberculosis σ^A (Strep-tag II-σ^A, co-expressed with WhiB7) (natural protein)
chain: AATKASTATDEPVKRTATKSPAASASGAKTGAKRTAAKSASGSPPAKRATKPAARSVKPASAPQDTTTSTIPKRKTRAAAKSAAAKAPSARGHATKPRAPKDAQHEAATDPEDALDSVEELDAEPDLDVEPGEDLDLDAADLNLDDLEDDVAPDADDDLDSGDDEDHEDLEAEAAVAPGQTADDDEEIAEPTEKDKASGDFVWDEDESEALRQARKDAELTASADSVRAYLKQIGKVALLNAEEEVELAKRIEAGLYATQLMTELSERGEKLPAAQRRDMMWICRDGDRAKNHLLEANLRLVVSLAKRYTGRGMAFLDLIQEGNLGLIRAVEKFDYTKGYKFSTYATWWIRQAITRAMADQARTIRIPVHMVEVINKLGRIQRELLQDLGREPTPEELAKEMDITPEKVLEIQQYAREPISLDQTIGDEGDSQLGDFIEDSEAVVAVDAVSFTLLQDQLQSVLDTLSEREAGVVRLRFGLTDGQPRTLDEIGQVYGVTRERIRQIESKTMSKLRHPSRSQVLRDYLD

Experiments:
Assay in all cases: cryo-EM structure
[1] = biological target: Mycobacterium tuberculosis RNA polymerase β’ subunit (M. tuberculosis, UniProt P9WGY7)
[2] = biological target: T1, Mycobacterium tuberculosis RNA …
[3] = biological target: B1
[4] = biological target: T2, Mycobacterium tuberculosis σ^A …

Binder	binding result [1]	binding result [2]	binding result [3]	binding result [4]
B1	binds	binds		
Mycobacterium tuberculosis WhiB7 (6His-WhiB7) (natural protein) MSVLTVPRQTPRQRLPVLPCHVGDPDLWFADTPAGLEVAKTLCVSCPIRRQCLAAALQRAEPWGVWGGEIFDQGSIVSHKRPRGRPRKDAVA	binds		binds	
Mycobacterium tuberculosis RbpA (co-expressed with σ^A) (natural protein) MADRVLRGSRLGAVSYETDRNHDLAPRQIARYRTDNGEEFEVPFADDAEIPGTWLCRNGMEGTLIEGDLPEPKKVKPPRTHWDMLLERRSIEELEELLKERLELIRSRRRG				binds
Mycobacterium tuberculosis RbpA (expressed alone from pET20b) (natural protein) MADRVLRGSRLGAVSYETDRNHDLAPRQIARYRTDNGEEFEVPFADDAEIPGTWLCRNGMEGTLIEGDLPEPKKVKPPRTHWDMLLERRSIEELEELLKERLELIRSRRRG			binds	
Mycobacterium tuberculosis CarD (natural protein) MIFKVGDTVVYPHHGAALVEAIETRTIKGEQKEYLVLKVAQGDLTVRVPAENAEYVGVRDVVGQEGLDKVFQVLRAPHTEEPTNWSRRYKANLEKLASGDVNKVAEVVRDLWRRDQERGLSAGEKRMLAKARQILVGELALAESTDDAKAETILDEVLAAAS		binds		
